According to EP4692126A1 (Sound Biopharmaceuticals Co. Ltd., dated 2026):
Where a chain is given by its changes, count along the chain named. One block for each binder: values may come before it.

Columns and labels:
TPBG-His [1] = biological target: T1, TPBG-His (UniProt Q13641 32-355, limits assumed); test: SPR (Biacore 8K), antibody captured on anti-human antibody CM5 chip, TPBG-His 300 nM, 1:1 model
T1 construct: probably the human protein, the same as m24; also called TPBG-His antigen; TPBG-His protein; not shown: His tag
T1 sequence (looked up): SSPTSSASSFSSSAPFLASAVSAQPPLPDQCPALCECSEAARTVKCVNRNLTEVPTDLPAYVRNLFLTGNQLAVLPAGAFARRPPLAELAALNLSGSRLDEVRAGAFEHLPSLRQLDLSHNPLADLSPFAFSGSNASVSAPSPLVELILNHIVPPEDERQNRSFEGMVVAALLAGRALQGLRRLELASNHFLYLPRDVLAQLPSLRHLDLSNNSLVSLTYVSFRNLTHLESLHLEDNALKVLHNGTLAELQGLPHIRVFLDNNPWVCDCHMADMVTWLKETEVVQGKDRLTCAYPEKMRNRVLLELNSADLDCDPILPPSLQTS

TPBG-His [2] = biological target: T1, TPBG-His; test: SPR (Biacore), TPBG-His amine-coupled to CM5, antibody as analyte, 1:1 model
TPBG-His [3] = biological target: T1, TPBG-His; test: ELISA, TPBG-His coated at 1 ug/ml, anti-human IgG Fc HRP detection
[4] = biological target: T2, mouse 5T4 antigen (TPBG-His, mouse) (mouse, UniProt Q9Z0L0 32-361, limits assumed); test: ELISA, TPBG-His coated at 1 ug/ml
T2 construct: One of the '3 different species of TPBG-His' coated in the cross reactivity ELISA; also called mouse TPBG-His; not shown: His tag
T2 sequence (looked up): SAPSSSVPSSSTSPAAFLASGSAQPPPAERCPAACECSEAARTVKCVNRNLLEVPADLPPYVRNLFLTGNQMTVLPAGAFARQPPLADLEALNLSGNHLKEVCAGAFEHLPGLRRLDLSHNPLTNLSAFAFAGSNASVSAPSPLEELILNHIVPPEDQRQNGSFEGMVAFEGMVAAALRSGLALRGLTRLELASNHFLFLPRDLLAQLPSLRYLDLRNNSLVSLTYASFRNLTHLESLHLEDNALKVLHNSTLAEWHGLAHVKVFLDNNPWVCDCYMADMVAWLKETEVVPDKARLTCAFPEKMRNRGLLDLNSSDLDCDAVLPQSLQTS

5T4 EDC-Fc = biological target: T3, 5T4 EDC-Fc (UniProt Q13641 32-355); test: SPR (Biacore), 5T4 EDC-Fc amine-coupled to CM5, antibody as analyte, 1:2 model
T3 construct: domain: EDC; Printed with molecular weight 65-120 kD; not shown: Fc part
T3 sequence (looked up): T1 sequence (looked up)

Kd (TPBG-His [1]): 0.785 nM
koff (TPBG-His [1]): 0.000298 s⁻¹
kon (TPBG-His [1]): 380000 M⁻¹ s⁻¹
B1: hB5-2-12 (antibody, human IgG1, kappa)
heavy: not shown
light: DIQMTQSPSSLSASVGDRVTISCRASQDISNYLNWYQQKPGKAPKLLIYHTSILHSGVPSRFSGSGSGTDYSLTISSLQPEDFATYFCQQGDTVPLTFGGGTKVEIKRTVAAPSVFIFPPSDEQLKSGTASVVCLLNNFYPREAKVQWKVDNALQSGNSQESVTEQDSKDSTYSLSSTLTLSKADYEKHKVYACEVTHQGLSSPVTKSFNRGEC
notes: Humanized IgG1 kappa

Kd (TPBG-His [1]): 0.634 nM
koff (TPBG-His [1]): 0.000347 s⁻¹
kon (TPBG-His [1]): 547000 M⁻¹ s⁻¹
B2: hB5-2-16 (antibody, human IgG1, kappa, V domains shown)
VH: EVQLVESGGGVVQPGRSLRLSCAASGFTFRNYAMSWVRQAPGKGLEWVAEISTGGSYTYYPDTVTGRFTISRDNSKNTLYLQMSSLRAEDTAVYYCAFYYYGSSYSMDYWGQGTLVTVSS
VL: DIQMTQSPSSLSASVGDRVTISCRASQDISNYLNWYQQKPGKAPKLLIYHTSILHSGVPSRFSGSGSGTDYSLTISSLQPEDFATYFCQQGDTVPLTFGGGTKVEIKR
notes: Humanized IgG1 kappa

Kd (TPBG-His [1]): 2.31 nM
koff (TPBG-His [1]): 0.000487 s⁻¹
kon (TPBG-His [1]): 211000 M⁻¹ s⁻¹
Kd (TPBG-His [2]): 2.92 nM
koff (TPBG-His [2]): 0.000627 s⁻¹
kon (TPBG-His [2]): 215000 M⁻¹ s⁻¹
EC50 (TPBG-His [3]): 2.8 ng/mL
B3: hB5-2-10 (antibody, human IgG1, kappa)
heavy: not shown
light: B1 light with A43V, F83V
notes: Humanized IgG1 kappa; also called humanized antibody hB5-2-10
binding result [4]: no binding (tested: highest concentration tested 20000 ng/ml)

Kd (TPBG-His [1]): 0.95 nM
koff (TPBG-His [1]): 0.000302 s⁻¹
kon (TPBG-His [1]): 318000 M⁻¹ s⁻¹
B4: hB5-2-20 (antibody, human IgG1, kappa)
heavy: not shown
light: B1 light
notes: Humanized IgG1 kappa

Kd (TPBG-His [1]): 0.927 nM
koff (TPBG-His [1]): 0.000278 s⁻¹
kon (TPBG-His [1]): 299000 M⁻¹ s⁻¹
B5: hB5-2-9 (antibody, human IgG1, kappa)
heavy: not shown
light: B1 light with F83I
notes: Humanized IgG1 kappa

Kd (TPBG-His [1]): 1.95 nM
koff (TPBG-His [1]): 0.000632 s⁻¹
kon (TPBG-His [1]): 324000 M⁻¹ s⁻¹
B6: hB5-2-15 (antibody, human IgG1, kappa, V domains shown)
VH: B2 VH
VL: B2 VL with S7T, P8T, Y36F, L46S, R61K
notes: Humanized IgG1 kappa

Kd (TPBG-His [1]): 2.36 nM
koff (TPBG-His [1]): 0.000527 s⁻¹
kon (TPBG-His [1]): 223000 M⁻¹ s⁻¹
B7: hB5-2-2 (antibody, human IgG1, kappa, V domains shown)
VH: B2 VH with V11L, R16G, S75A, T78S, S84N
VL: B2 VL with A43V, F83V
notes: Humanized IgG1 kappa

Kd (TPBG-His [1]): 1.39 nM
koff (TPBG-His [1]): 0.000431 s⁻¹
kon (TPBG-His [1]): 310000 M⁻¹ s⁻¹
B8: hB5-2-11 (antibody, human IgG1, kappa)
heavy: not shown
light: B1 light with S7T, P8T, Y36F, L46S, R61K
notes: Humanized IgG1 kappa

Kd (TPBG-His [1]): 1.53 nM
koff (TPBG-His [1]): 0.000497 s⁻¹
kon (TPBG-His [1]): 326000 M⁻¹ s⁻¹
B9: hB5-2-6 (antibody, human IgG1, kappa, V domains shown)
VH: B2 VH with V11L, R16G, S84N
VL: B2 VL with A43V, F83V
notes: Humanized IgG1 kappa

Kd (TPBG-His [1]): 0.95 nM
koff (TPBG-His [1]): 0.000302 s⁻¹
kon (TPBG-His [1]): 318000 M⁻¹ s⁻¹
B10: hB5-2-8 (antibody, human IgG1, kappa, V domains shown)
VH: B2 VH with V11L, R16G, S84N
VL: B2 VL
notes: Humanized IgG1 kappa

Kd (TPBG-His [1]): 1.87 nM
koff (TPBG-His [1]): 0.000681 s⁻¹
kon (TPBG-His [1]): 364000 M⁻¹ s⁻¹
B11: hB5-2-3 (antibody, human IgG1, kappa, V domains shown)
VH: B2 VH with V11L, R16G, S75A, T78S, S84N
VL: B2 VL with S7T, P8T, Y36F, L46S, R61K
notes: Humanized IgG1 kappa

Kd (TPBG-His [1]): 0.88 nM
koff (TPBG-His [1]): 0.000348 s⁻¹
kon (TPBG-His [1]): 396000 M⁻¹ s⁻¹
B12: hB5-2-19 (antibody, human IgG1, kappa)
heavy: not shown
light: B1 light with S7T, P8T, Y36F, L46S, R61K
notes: Humanized IgG1 kappa

Kd (TPBG-His [1]): 0.869 nM
koff (TPBG-His [1]): 0.000342 s⁻¹
kon (TPBG-His [1]): 393000 M⁻¹ s⁻¹
B13: hB5-2-7 (antibody, human IgG1, kappa, V domains shown)
VH: B2 VH with V11L, R16G, S84N
VL: B2 VL with S7T, P8T, Y36F, L46S, R61K
notes: Humanized IgG1 kappa

Kd (TPBG-His [1]): 0.902 nM
koff (TPBG-His [1]): 0.000317 s⁻¹
kon (TPBG-His [1]): 351000 M⁻¹ s⁻¹
B14: hB5-2-17 (antibody, human IgG1, kappa)
heavy: not shown
light: B1 light with F83I
notes: Humanized IgG1 kappa

Kd (TPBG-His [1]): 1.74 nM
koff (TPBG-His [1]): 0.000774 s⁻¹
kon (TPBG-His [1]): 445000 M⁻¹ s⁻¹
B15: hB5-2-14 (antibody, human IgG1, kappa, V domains shown)
VH: B2 VH
VL: B2 VL with A43V, F83V
notes: Humanized IgG1 kappa

Kd (TPBG-His [1]): 0.721 nM
koff (TPBG-His [1]): 0.000313 s⁻¹
kon (TPBG-His [1]): 434000 M⁻¹ s⁻¹
B16: hB5-2-13 (antibody, human IgG1, kappa, V domains shown)
VH: B2 VH
VL: B2 VL with F83I
notes: Humanized IgG1 kappa

Kd (TPBG-His [1]): 0.845 nM
koff (TPBG-His [1]): 0.000298 s⁻¹
kon (TPBG-His [1]): 353000 M⁻¹ s⁻¹
B17: hB5-2-4 (antibody, human IgG1, kappa, V domains shown)
VH: B2 VH with V11L, R16G, S75A, T78S, S84N
VL: B2 VL
notes: Humanized IgG1 kappa

Kd (TPBG-His [1]): 0.827 nM
koff (TPBG-His [1]): 0.000279 s⁻¹
kon (TPBG-His [1]): 337000 M⁻¹ s⁻¹
B18: hB5-2-5 (antibody, human IgG1, kappa, V domains shown)
VH: B2 VH with V11L, R16G, S84N
VL: B2 VL with F83I
notes: Humanized IgG1 kappa

Kd (TPBG-His [1]): 1.11 nM
koff (TPBG-His [1]): 0.000388 s⁻¹
kon (TPBG-His [1]): 351000 M⁻¹ s⁻¹
B19: hB5-2-1 (antibody, human IgG1, kappa, V domains shown)
VH: B2 VH with V11L, R16G, S75A, T78S, S84N
VL: B2 VL with F83I
notes: Humanized IgG1 kappa

Kd (TPBG-His [1]): 2.07 nM
koff (TPBG-His [1]): 0.00061 s⁻¹
kon (TPBG-His [1]): 294000 M⁻¹ s⁻¹
B20: hB5-2-18 (antibody, human IgG1, kappa)
heavy: not shown
light: B1 light with A43V, F83V
notes: Humanized IgG1 kappa

Kd (5T4 EDC-Fc): 0.018 nM
koff (5T4 EDC-Fc): 1.45e-05 s⁻¹
kon (5T4 EDC-Fc): 803000 M⁻¹ s⁻¹
B21: antibody B5 (antibody, V domains shown)
VH: EVQLVESGGGLVKPGGSLKLSCAASGFTFRNYAMSWVRQSPDKRLEWVAEISTGGSYTYYPDTVTGRFTISRDNAKNTLYLEMSSLRSEDTAMYYCAFYYYGSSYSMDYWGQGTSVTVSS
VL: DIQMTQTTSSLSASLGDRVTISCRASQDISNYLNWYQQKPDGTVKLLIYHTSILHSGVPSRFSGSGSGTDYSLTISNLEQEDIATYFCQQGDTVPLTFGAGTKLELK
notes: Monoclonal antibody from hybridoma of immunized BALB/c mice
